Assays:
[1] = biological target: complement receptor 3 (CD11b/CD18) on primary human cervical epithelial (Pex) cells (human (endogenous in Pex cells)) (UniProt P11215); assay: fluorometric adherence assay on cells; virions 10 ng/mL p24 equivalent, 2 h on CHO or Pex cells; cells fixed, HIV immunolabelled (goat polyclonal LS-C103187, FITC secondary) and quantified against a standard curve of virus
[2] = biological target: human recombinant complement receptor 3 (integrin αMβ2, CD11b/CD18) (human) (UniProt P11215); assay: SPR; Biacore S200; HIV virions flowed over immobilised rI-domain or rCR3; blank ethanolamine reference flow cell; mean Kd ± SD from a minimum of two technical repeats on each of two flow cells
[3] = biological target: human recombinant I-domain of the CR3 alpha subunit CD11b (human); assay: as above
[4] = biological target: complement receptor 3 (CD11b/CD18) on primary human cervical epithelial (Pex) cells (human (endogenous in Pex cells)) (UniProt P11215)
[5] = biological target: human complement receptor 3 (CD11b/CD18) on CHO-CR3 cells (human) (UniProt P11215); assay: fluorometric adherence assay on cells; virions 10 ng/mL p24 equivalent, 2 h on CHO or Pex cells; cells fixed, HIV immunolabelled (goat polyclonal LS-C103187, FITC secondary) and quantified against a standard curve of virus

| Substance | adherent virus (p24 HIV equivalent) [1] [ng/mL] | percent of the inoculum adherent [1] [%] | Kd [2] [nM] | Kd [3] [nM] | HIV-1 transcytosis across a polarized Pex cell monolayer in Transwells, no competimer; HIV p24 in the basal chamber as percent of the inoculum (10 ng/mL p24 equivalent) [4] [%] | adherent virus (p24 HIV equivalent) [5] [ng/mL] | percent of the inoculum adherent [5] [%] |
| --- | --- | --- | --- | --- | --- | --- | --- |
| HIV-1 strain NL4-3 AD8 virions produced in HEK293T cells (envelope glycoprotein gp120/gp41 on the virion surface) (complex) | 1.01 | 10 | 337 | 239 |  |  |  |
| HIV-1 strain NL4-3 virions produced in HEK293T cells (envelope glycoprotein gp120/gp41 on the virion surface) (complex) |  |  | 192 | 90.9 |  |  |  |
| HIV-1 transmitted founder strain REJO virions produced in HEK293T cells (envelope glycoprotein gp120/gp41 on the virion surface) (complex) |  |  | 90.3 | 265 |  |  |  |
| HIV-1 transmitted founder strain RHPA virions produced in HEK293T cells (envelope glycoprotein gp120/gp41 on the virion surface) (complex) |  |  | 249 | 912 |  |  |  |
| HIV-1 transmitted founder strain WITO virions produced in HEK293T cells (envelope glycoprotein gp120/gp41 on the virion surface) (complex) |  |  | 242 | 298 | 4 |  |  |
| HIV-1 transmitted founder strain WITO virions propagated in primary human PBMCs (envelope glycoprotein gp120/gp41 on the virion surface) (complex) |  |  | 10.6 | 7.92 |  |  |  |
| HIV-1 transmitted founder strain WITO virions, producer cells not stated (envelope glycoprotein gp120/gp41 on the virion surface) (complex) | 1.35 | 13 |  |  |  | 2.4 | 24 |

— article PMC8749410
